Source: the DeepSol protein solubility set

Test: soluble on expression in E. coli; label from the status in PepcDB or PDB records

Sequence | soluble on expression in E. coli
MGSDKIHHHHHHMLSHRLQDTSLRYFLEVVRTGSLTEAAQRLNVTVSAVSRQVAALESWLGVPLFDRRPRGMVASAAGELLAAYALRNALEADRVVTEIDALQGLRRGRVRVASSAGFAIEFLPRAIADFRERYPGLHFHVRVAPPAEVTGIVLHGDADIGITYSRAAEQGIRVEHRQAAPVIAIMRPDHALARFRSITLSQMLPYPLALPEGDNTVRQLFDIACGERGVAFEPVLVSNQFETLTSFVLHGGGLSISGGVTVGDRLRRGELHAATIRERGMKSRAIELQTLAGRTLPEGVRTFLGFVRDRLVEEAGIGS | not soluble
MKKIAIFAKVHDPRCQGVASELIAWLEARGLIPLVEAHLARHLGGRQGIVPEDIPVLADMAVVLGGDGTLISAARLIGSRQIPILGVNLGSLGFLTEITLDELYPVLESCLSGDFQVTERMMLTVSVERNGEEICSHRVLNDVVINKGALARIIDMETEVSGIRLTTYKADGLIISTPTGSTGYSLSANGPIVHPSLECITITPICPHTLTNRPIVLESSSGVTVWLRSKDEDVYLTLDGQVGMELKCGDAVHVRRAAHRTRLVMSRSRNYFEVLRTKLKWGERAAALEHHHHHH | soluble
MPIWNHNTAYRPWLVSKLKGSRSLLDVGSGDHSFADLAGRQVAHVDVVDPLINTTFEEFQPTQSYDAITFIASLHHMNAEEGLNKAVRILNPGGKLLIVGLAKNKTASDWIISGLQAFLSRPISLINREQQIYPFPTKEPSESLHEIRQLTKQLLPHRRIRRGIHFRYLLEWTKPLEHHHHHH | not soluble
MRILFSLFFFISLSLLAQPLSLSLKNAPTAEILSYLAEENMKNIVLSDQIDKNTTLRIENSHFDEIVESIVRANQLSKRKEKQIYFIGHLKEDKAIEKIDNGDKPKLITQTIKLDYAKASEVIESLTKGKGNGNVLSEQGYLYFDERSNSLIIKDSPDSMKHILALIKNLDKPTEQIAIEARIVTISSQDLQELGVRWGMFSPSDDYHKVASSLETKGLTTANHLNVNFPVNNATSLALQVARINSRVLDLELTALEQENNVEIIASPRLLTTNKKPASIKQGAEIPYVLYNRKDEVKNIEFKEAVLGLQVTPHISADNQILLDLVVTQNSPNLNNTAVNGLITIDKQELNTQVFAKHGETIVLGGIFQHLTAKGEDRVPLLGSIPVLKKLFSHSTDKITKRELVIFVTPYLVQDKYKKLEHHHHHH | not soluble
NSKKETVTVGVLQFVSHPALDEIYKGVEEGLKENGYDKGKNLEIIFQNGQADQSKLAIMSQQLVQKKADVLIGIATPAAQALANTTQEIPIILGAITDPVSAGLVKDNQKPGGNITGVSDQSPLSAQMDLLKELIPAAKKIGILYASSEENSRYQVAEAQKAAEAKGLTVKTYAVPSSNEIAQTVQVMTKETDVIYIPTDNTIANAMQTVVGEANRTKTPIIPSVDTMVEQGGLATVGINQHALGVQAGKMAAEVLSGKSQPATTPIYTFNTGDTIINEKQAQKLGITIPAELAKKSKLIN | not soluble
MRFSREALLELEASRLAPYAQKARDTRGRAHPEPESLYRTPYQKDRDRILHTTAFRRLEYKTQVLPGWAGDYYRTRLTHTLEVAQVSRSIARALGLNEDLTEAIALSHDLGHPPFGHTGEHVLNALMQDHGGFEHNAQALRILTHLEVRYPGFRGLNLTYEVLEGIATHEAAYSPGFKPLYEGQGTLEAQVVDLSDAIAYAAHDLDDGLRAGLLHPEELKEVELLQALALEEGLDLLRLPELDRRVLVRQLLGYFITAAIEATHRRVEEAGVQSAEAVRRHPSRLAALGEEAEKALKALKAFLMERFYRHPEVLRERRKAEAVLEGLFAAYTRYPELLPREVQAKIPEEGLERAVCDYIAGMTDRFALEAYRRLSP | soluble
GMASSGTEHDAMRARLVDVAQAIVEERGGAGLTLSELAARAGISQANLSRYFETREDLMEAIADYWFHPMVEIMEDVLASDLPPRRKMYEFFARRFVVMRRKWEADPVKLQTYIEVGNDYFEQVRSYIDLADHYLGEIIGEAMSDGAFSGLEVDETISLVNQMCAPYCALNTMTTFMERLSEDKLARIVDAVFDGLSAQDRGARSLTGLRAA | soluble
MIRVMLSQLSSVLNARLIGEDRAVSAVSTDSRAIPAEALFVALVGERFDAHDFASQAVTGGAVALLVERELDAECSQLVVADTKQALGQLGSWVHAQCQTPTVAITGSCGKTTVKEMVASILSQKGQVLYTQGNFNNDIGVPLTLLRSTTEDDYAVIELGANHVGEIAYTTALVKPDVALVNNVAAAHLEGFGSMDGVKRAKGEIYQGLQAGAVAIVNLDSNGGDYWKAVLADKTVKTFSATDHNADFYPRDVRLNALGIASFTLVTPVGEVGVELGIMGQHNVANALAAAALSLEMGASLAEIGQGLAHLSKVKGRVDMAQLRDDITLIDDSYNASVPAMKAAVELLGSFSAVRWLILGNMAELGDESLALHQQVGEHAAPFGFEFVLTYGKDAKVISDLCQGHHFATHQDMMTFIEQHIEQQQGRTQVLLVKGANSAGMSKIAAALKEKFA | not soluble
MSLYNKVLIIDDHPVLRFAVRVLMEKEGFEVIGETDNGIDGLKIAREKIPNLVVLDIGIPKLDGLEVIARLQSLGLPLRVLVLTGQPPSLFARRCLNSGAAGFVCKHENLHEVINAAKAVMAGYTYFPSTTLSEMRMGDNAKSDSTLISVLSNRELTVLQLLAQGMSNKDIADSMFLSNKTVSTYKTRLLQKLNATSLVELIDLAKRNNLAEGHHHHHH | not soluble
MGSDKIHHHHHHMIPEKKSIAIMKELSIGNTKQMLMINGVDVKNPLLLFLHGGPGTPQIGYVRHYQKELEQYFTVVHWDQRGSGLSYSKRISHHSMTINHFIKDTIQVTQWLLAHFSKSKLYLAGHSWGSILALHVLQQRPDLFYTYYGISQVVNPQDEESTAYQHIREISESKKASILSFLTRFIGAPPWKQDIQHLIYRFCVELTRGGFTHRHRQSLAVLFQMLTGNEYGVRNMHSFLNGLRFSKKHLTDELYRFNAFTSVPSIKVPCVFISGKHDLIVPAEISKQYYQELEAPEKRWFQFENSAHTPHIEEPSLFANTLSRHARNHL | not soluble
MGSDKIHHHHHHMRRKIPSTAALICFEAAARNESFTKAAQELALTQGAVCRQIGGLEAFLNVELFRRSRRGVRLTEAGLSYSRQVAAQLDAVERDTLSVMRQQGANVIELAVVPTFGTQWLLPRLKDFQQRHPEVTVNLTNRTRPFLFADTTFDAAIYFGDADWSGTQSHQLMGENPVPVCSPALLNGQGMLEARHIAQLPLLQQSTRPYAWRQWFGSVGMNVERDMTGPRYELFSMLAQAAMHDMGIALIPPFLIQRELEEGRLVVANRHALSSDKAYYLMIPERKVESASLRAFRDWLVSQAQAYINSSGTNAAN | not soluble
MFHLSSLICCGCKPNFLGFERHHPFYDNDKKRICSSECGHSLCKKCFETYKNCPICAKPLVRIDNFMAREIYAFLKKTPMIVFDMWWNRSQNPSSTGRCSTCHKYDRILRWCITCEKDLKNSEAEWRRPKIEPNTDLQKELIKVSKERFRFGILANRVICSDCFLEHHAGHRVIFLDEMISALTEYSISDSATHLVQRFLWREIEERRGKCLLRTMRMKRAFLKLFYLACDSDLTDDYNDLPKFFERLDDWKVPDGYMEKVRKNLEHQFASANVPWKDCECRYAMRIMNDMFSFKNQIEKLFVSIVNDLDLHEITECPFKNSQITDMLQKTKKMVDIQLYKLYTLFCWNNYKDGVFELFNNSNRLPTKCCLCKMSTCAECWDEEPHKCGICDDATTSSRTDPDIVVLELVKHYKENCISLLEAWWECDAAQLGFCLNCASYTEDLEICVYCELDVERSALKTEVETSAEFTKDMQLRFTYKGLSGFPMRWQCSDCTTRHRKPTADVWNKGCNHFRYRSMYASVSSECFAHNHKSPCLRLKEIKNYDLAMKAATFGLVFKIIKEGIKEHVGSEHARKEILET | not soluble
MGERGVEMRLRIRFESAECEVELYEEWAPETVRAIADALPIKSTANRWGDEIYFTTQVAVEKEENSKDVVELGDVAYWIPGKAICLFFGKTPISDDKIRPASAVNVIGRIVNSMEGLKGVADGESVVVERA | not soluble
IEKSTQYMAKRRIGALISVARDTGMDDYIETGIPLNAKISSQLLINIFIPNTPLHDGAVIIKGNEIASAASYLPLSDSPFLSKELGTRHRAALGISEVTDSITIVVSEETGGISLTKGGELF | not soluble
